B1: TPR t1 (parent)
chain: GACCAAUCUGCCCUCAGAGCUCGAGAACAUCUUCGGAUGCAGAGGAGGCAGGCUUCGGUGGCGCGAUAGCGCCAACGUCCUCAACCUCCAAUGCAUCCCACCACAUGAUGAUGCCUGAAGAGCCUUGGUUUUUUG

Variants of: B1
Experiment: polymerase ribozyme fitness, log enrichment relative to wild type (log ratio); higher = more active; in vitro selection for triplet polymerase activity
Method in brief: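 A heterodimeric triplet polymerase ribozyme had each of its subunits mutagenized by PCR into a library, which was transcribed. One round of in vitro selection, done in triplicate, annealed each library with a biotinylated primer, its partner subunit and triplets, then incubated it frozen at −7 °C before gel excision of extended constructs, streptavidin-bead capture and RT-PCR. Fitness is the logarithm of genotype enrichment relative to wild-type enrichment, based on Illumina sequencing of inputs and outputs and inverse-variance-weighted replicate averages. A base-2 logarithm is used, and genotypes were kept only with ≥10 input reads and ≥1 read per output.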

Row | Variant | polymerase ribozyme fitness (log ratio)
1 | G10C G110C | -6.69
2 | G10A C11A G42U G48A G63A A66U A91G C115U | -6.69
3 | G10U C13G C80U G135U | -1.95
4 | G10A G42A A43U | -1.82
5 | G10U C11G | 0.195
6 | G10C G47U C89U | -5.13
7 | G10A C49A U78C U116A G120U | -0.56
8 | G10C C99U | -4.44
9 | G10U A50C C73A U78G A90G | -0.824
10 | G10A C13U A27U | -2.05
11 | G10A U55G | -0.319
12 | G10A C22U G36A A43C C49G U92A C98A G120C U125G | -7.92
13 | G10A C13U C64A C70A G113A U125C | -6.12
14 | G10U C12A G60A | -0.594
15 | G10A G51U G71U C101A | -6.07
16 | G10A G47C G63A C97U C101A C102U | -8.22
17 | G10A G110A | -1.12
18 | G10C U38A G63C U130G | -2.42
19 | G10C A27U U87G | -3.55
20 | G10A G44A G63C | -0.955
21 | G10A C53U G61C G122A G127U U129A | 0.0511
22 | G10A A74G C97U C101U A105G U130G | -5.19
23 | G10A C49A | 0.131
24 | G10U C13A C72U U109A | -6.62

Row | Variant | polymerase ribozyme fitness (log ratio)
25 | G10A C15A G44U C56U A74G | -3.61
26 | G10C G36A | -1.22
27 | G10U C20A C40U A46G C62U C82U C114A | -3.36
28 | G10C C73G C85G | -2.53
29 | G10C G63U | -2.32
30 | G10C C12A A18C G42U G71A G117U G122U U130G | -3.23
31 | G10A G52U C56G C98U G113U | -6.91
32 | G10C A18C C20U C56U | -3.11
33 | G10A G39U G51A C70U | -5.24
34 | G10U A26G | -2.71
35 | G10A C88G A111C | -0.763
36 | G10C U38G G42C A121U | -1.8
37 | G10C C11A | -1.06
38 | G10C G60U G135C | -0.497
39 | G10A C13U G42C A46G C101U G110C | -6.91
40 | G10A G52U G63A C70G | -2.51
41 | G10C U112G | 0.149
42 | G10C A43G G44C C49U G52C C56G G77A | -6.25
43 | G10U A27G U59A C98U | -6.42
44 | G10A C104U | -0.557
45 | G10C U106C G107C | -5.64
46 | G10A C15A C94A | -3.08
47 | U9G U59G | 0.701
48 | G10C G61U U109C | -5.18

Row | Variant | polymerase ribozyme fitness (log ratio)
49 | G10A C13U C86G | -0.113
50 | G10C C15G G69C | -4.46
51 | G10U C28G G60A C85A U131G | -4.5
52 | G10A A29G A43U C70U C89A | -4.19
53 | G10C C89U U129C | -2.54
54 | G10A G19A C114U U133G | 0.465
55 | G10A C97A | -4.44
56 | G10A A24C A29G C34U G44A C53U C98U A111U | -7.41
57 | G10A C13U G45U G117A | -0.718
58 | G10A G48A G52A | -1.11
59 | G10C G39A G61A | -1.27
60 | G10A C70G G120U | -1.35
61 | G10U C70A | -1.66
62 | G10C A41C G48A A74U C101U | -3.49
63 | G10C G51A U106A U112A | -5.36
64 | G10A A37U G45U C80A G110C | -7.42
65 | G10A G23A | -4.78
66 | G10C A41C G71C G122A | -2.21
67 | G10C G36A G71A | -2.47
68 | G10C U38G C53G G63C A111U C124U U133G | -5.15
69 | G10U C31G G39C C64U G110A G113U | -6.42
70 | G10U C12U C22A C56U U112C | -1.17
71 | G10A U33C A90G A118G | -6.66
72 | G10A A43C C123A U125C | -1.73

Row | Variant | polymerase ribozyme fitness (log ratio)
73 | G10C G71U C114A A118C | -6.14
74 | G10C G69U G107C G120U | -2.44
75 | G10A A26C G36U G45C G51U C70U C79A C98U C123U G127U | -8.21
76 | G10A C56A G110A | -0.729
77 | G10A G19U G61U | -4.88
78 | G10U C13U C70A | -0.716
79 | G10U A29G G52U C79G | -2.85
80 | G10C U78C U106A U109G | -4.27
81 | G10A G69U G93A G110A A121U U132C | 0.47
82 | G10A G48A G63U C82G A91U G117C | -5.31
83 | G10U C53G C70U C86U A119G | -0.267
84 | G10A C79A C123U | 1.23
85 | G10A U54A A119G | 1
86 | G10A G52C | -0.471
87 | G10C C76G | -1.17
88 | G10A C73U A84U G110U | -2.38
89 | G10C G19C A43G C72U U112C C123A | -1.54
90 | U9G U109A | -3.09
91 | G10U C15G G19U G63A G113U C124A | -5.07
92 | G10C U14A G48A G110A | -3.91
93 | G10A G45U G113A | -1.45
94 | G10A G69U C79U C98A | -2
95 | G10C A18U G93A U130C | -3.83
96 | G10U A27G U106C C123A | 0.556

Row | Variant | polymerase ribozyme fitness (log ratio)
97 | G10A C22U C34U C72A C115G A121C G122U | -8.04
98 | U9G U54G G58C C73U | -0.715
99 | G10A G19A C70A U96A C104U | -6.15
100 | G10U C49U | -0.491
101 | G10A G60C C124A | 1.12
102 | G10A U33C C86A A111U | -6.34
103 | G10A C76G G120A | 1.28
104 | G10C C72U | -1.32
105 | G10A C73A | -0.58
106 | G10A C20U G65A C70A A91U C104G G120U | -6.74
107 | G10C C62U | -0.917
108 | G10A A18U C40U U59G G93A | -2.28
109 | G10U A43U G45C U78A | -2.4
110 | G10A G61C U87A C123A | -0.382
111 | G10A C49G U133A | -0.21
112 | G10C C11G C22G C76U | -4.64
113 | G10U A18U A29U U54A A121C | -1.32
114 | G10A G61A | 0.248
115 | G10C C12G C72A A105U | -3.93
116 | G10U C62U C72A C88U C89G A121G U132C | -1.87
117 | G10A C12G U21C U106G C114G U116A | -6.06
118 | G10C C15A A50U C115U | -5.25
119 | G10C C49U C94U | -1.58
120 | G10A C62A U96A | -2.02

Row | Variant | polymerase ribozyme fitness (log ratio)
121 | G10A C13G G69A U78C | -3.65
122 | G10A C86A | -0.0637
123 | G10C A37C A66U | -2.37
124 | G10U A91G C101U | -0.603
125 | G10C U14C C15U C94U C97U U112A | -1.07
126 | G10A A16U A66C C88A U92C G120U | -3.94
127 | G10U A18C | -2.58
128 | G10C G42C G77A C85A C86G C114A | -5.24
129 | G10C A16G A26U C72U C98U C115G | -6.74
130 | G10A U112G | 1.07
131 | G10A G52U C72G C99U | -4.47
132 | G10A C28U A46U A83C A84C C124A | -2.98
133 | G10C A27C U55C C70U | -7.04
134 | G10C C15U C53U C123A | 0.897
135 | G10A U96G | -0.411
136 | G10U A103G | -6.29
137 | G10A G51U C56G | -5.12
138 | G10A C72G G77C A95G C101G | -3.03
139 | G10U C53A C56A G61U A90C | -5.6
140 | G10A G52A G60A C79A C115A | -2.07
141 | G10A G45U | -1.26
142 | G10C U32C G52A G69C U112A G128A | -4.78
143 | G10U C13A A16U G110C U125A | -6.47
144 | G10C G71A U81C A100U | -3.62

Row | Variant | polymerase ribozyme fitness (log ratio)
145 | G10A G19C G63C U112G U133G | -5.97
146 | G10A U55G G69C | -1.36
147 | G10A G93A | 0.205
148 | U9G U87A A100C | -0.443
149 | G10U C34A G44A C72A | -5.99
150 | G10A A16C A50G A95C | -3.07
151 | G10C A74G | -1.26
152 | G10C G61U | -1.1
153 | G10A A95C | -0.471
154 | G10C C15U A41C C53G C89U | -3.28
155 | G10A U130C | 0.4
156 | G10U C13G G45U C56A U87A C94U C124G | -0.526
157 | G10C C11U C20U G48A C82U | -3
158 | G10A C85U | -0.189
159 | G10C C64U C79U A105G | -3.38
160 | G10A C11U C40U C72G C104G C124U U133C | -5.5
161 | G10C U92C G113U | -4.69
162 | G10A G42U C49A G61C C98A U112G U130G | -7.46
163 | G10U C20A A50C C102A C114U | -6.03
164 | G10A A37G G61C C85G C86A G113A C124G U130A | -5.79
165 | G10A G128U | -2.02
166 | G10A A29U | -1.77
167 | G10A C56A | 0.127

From the RNAGym collection of RNA variant scans (doi:10.1073/pnas.2313332121)
